The source of these data is article PMC10611767, “TudS desulfidases recycle 4-thiouridine-5’-monophosphate at a catalytic [4Fe-4S] cluster” (Communications Biology, 2023).

What all share (test): purified protein
What all share (conditions): anaerobic, normalized to 4 Fe per protein

Data set [1] concerns O=c1[nH]c(=S)ccn1[C@@H]1O[C@H](COP(=O)(O)O)[C@@H](O)[C@H]1O.
For data set [2], the system named is O=c1[nH]ccc(=S)[nH]1.
Data set [3] concerns O=c1[nH]c(=S)ccn1[C@@H]1O[C@H](CO)[C@@H](O)[C@H]1O.
For data set [4], the system named is O=c1[nH]c(=S)ccn1[C@@H]1O[C@H](COP(=O)(O)OP(=O)(O)OP(=O)(O)O)[C@@H](O)[C@H]1O.
Setting [5] is: 100 mM MOPS/KOH pH 7.3, 30 °C, anaerobically purified.
Setting [6] is: 100 mM MOPS/KOH pH 7.3, anaerobically purified.

One may read the Km as the concentration of substrate that gives half-maximal velocity. Usually Vmax stands for the top rate of the reaction or transport when substrate is in excess. Broadly, the kcat is the maximal rate divided by the concentration of active sites. Broadly, the kcat/Km is the second-order rate constant that governs catalysis at low substrate concentration.

In the case of TudS_A (uncultured bacterium), in data set [1] (setting [5]), the Km is on record as 0.038 ± 0.013 mM, the Vmax is 1000 µmol/min/mg, the kcat turned out to be 293 ± 44 s⁻¹ and the kcat/Km was determined as 7.77e+06 M⁻¹ s⁻¹. In data set [2] (setting [5]), the Km was 0.24 ± 0.03 mM, the Vmax stood at 2.4 µmol/min/mg, the kcat is 0.7 ± 0.05 s⁻¹ and the kcat/Km was 2900 M⁻¹ s⁻¹. In data set [3] (setting [5]), the Km worked out at 3.1 ± 0.6 mM, the Vmax stood at 30.1 µmol/min/mg, the kcat is 8.8 ± 0.9 s⁻¹ and the kcat/Km was 2880 M⁻¹ s⁻¹. Besides, in data set [4] (setting [5]), the Km came to 0.100 ± 0.023 mM, the Vmax stood at 234 µmol/min/mg, the kcat stood at 68.6 ± 3.4 s⁻¹ and the kcat/Km was determined as 685000 M⁻¹ s⁻¹.
Consider TudS_P (Pseudomonas sp. MIL19), for which the Km in data set [1] (setting [6]) was 0.020 ± 0.007 mM; in data set [2] (setting [6]), 1.49 ± 0.27 mM; in data set [3] (setting [6]), 0.2 ± 0.09 mM; in data set [4] (setting [6]), 0.117 ± 0.026 mM. For the same substance, the Vmax in data set [1] (setting [6]) worked out at 447 µmol/min/mg; in data set [2] (setting [6]), 15.9 µmol/min/mg; in data set [3] (setting [6]), 64.3 µmol/min/mg; in data set [4] (setting [6]), 168 µmol/min/mg. Also, the catalytic constant (kcat) stood at 138 ± 16 s⁻¹ in data set [1] (setting [6]), 4.93 ± 0.43 s⁻¹ in data set [2] (setting [6]), 19.9 ± 4.7 s⁻¹ in data set [3] (setting [6]) and 52.3 ± 2.4 s⁻¹ in data set [4] (setting [6]). Besides, the kcat/Km in data set [1] (setting [6]) came out at 7.63e+06 M⁻¹ s⁻¹; in data set [2] (setting [6]), 3270 M⁻¹ s⁻¹; in data set [3] (setting [6]), 103000 M⁻¹ s⁻¹; in data set [4] (setting [6]), 448000 M⁻¹ s⁻¹.
